{
  "source": "patent US20040018971A1",
  "about": "(published 2004)",
  "key": {"[1]": {"molecular_target": "HLA-A*0301 (purified HLA class I molecule) (human)", "test": "competition vs 125I standard peptide, purified HLA"}, "[2]": {"molecular_target": "T1, HLA-A*1101 (purified HLA class I molecule) (human)", "T1 construct": "Purified MHC molecule", "test": "competition vs 125I standard peptide, purified HLA"}, "[3]": {"molecular_target": "HLA-A*1101 (human)", "test": "competitive inhibition of 125I-labeled probe peptide binding to purified HLA-A*1101, gel filtration"}, "[4]": {"molecular_target": "T2, HLA-A*2401 (human)", "T2 construct": "Purified HLA class I molecule (kind: MHC class I); also called A*2402", "test": "inhibition of 125I-labelled standard peptide binding to purified HLA, gel filtration"}, "[5]": {"molecular_target": "HLA-A*1101 (purified HLA class I molecule) (human)", "test": "inhibition of 125I probe peptide binding to purified HLA; ratio to standard peptide"}, "[6]": {"molecular_target": "T3, HLA-A*0301 (purified HLA class I molecule) (human)", "T3 construct": "also called A3", "test": "inhibition of 125I probe peptide binding to purified HLA; ratio to standard peptide"}, "[7]": {"molecular_target": "T4, HLA-A*0201 (human)", "T4 construct": "also called HLA-A2.1", "test": "competition with 125I-labelled standard peptide 941.01 ([..]) on purified HLA, gel filtration"}},
  "data": [
    {"binder": "MALESILRRR", "note": "[HER2/neu peptide, position 889, 10 amino acids]", "values": [
      {"measurement": "relative binding ratio", "setting": "[1]", "result": "0.0011 ratio (IC50 standard/IC50 test)"},
      {"measurement": "relative binding ratio", "setting": "[2]", "result": "0.0003 ratio (IC50 standard/IC50 test)"}
    ]},
    {"binder": "ASCVTACPY (also called Her2/neu.293)", "note": "[HER2/neu peptide, position 293, 9 amino acids]", "values": [
      {"measurement": "relative binding ratio", "setting": "[3]", "result": "0.0074 ratio (IC50 of standard peptide / IC50 of test peptide)"}
    ]},
    {"binder": "AFSPAFDNL (also called Her2/neu.1212 (9-mer))", "note": "[HER2/neu peptide, position 1212, 9 amino acids]", "values": [
      {"measurement": "relative binding ratio", "setting": "[4]", "result": "0.0011 ratio (IC50 of standard peptide / IC50 of test peptide)"}
    ]},
    {"binder": "MIDSECRPR", "note": "[HER2/neu peptide, position 960, 9 amino acids]", "values": [
      {"measurement": "relative binding ratio", "setting": "[1]", "result": "0.0017 ratio (IC50 standard/IC50 test)"},
      {"measurement": "relative binding ratio", "setting": "[2]", "result": "0.0006 ratio (IC50 standard/IC50 test)"}
    ]},
    {"binder": "ETEYHADGGK (also called Her2/neu.874 (10-mer))", "note": "[HER2/neu peptide, position 874, 10 amino acids]", "values": [
      {"measurement": "relative binding ratio", "setting": "[5]", "result": "0.0001 ratio (IC50 standard / IC50 test)"},
      {"measurement": "relative binding ratio", "setting": "[6]", "result": "0.0003 ratio (IC50 standard / IC50 test)"}
    ]},
    {"binder": "HADGGKVPI (Synthetic peptide)", "note": "[HER2/neu A02 supermotif peptide, position 878, 9 amino acids]", "values": [
      {"measurement": "relative binding ratio", "setting": "[7]", "result": "0.0002 ratio (IC50 of standard peptide / IC50 of test peptide)"}
    ]},
    {"binder": "CTGTDMKLR (also called Her2/neu.26 (9-mer))", "note": "[HER2/neu peptide, position 26, 9 amino acids]", "values": [
      {"measurement": "relative binding ratio", "setting": "[5]", "result": "0.0005 ratio (IC50 standard / IC50 test)"},
      {"measurement": "relative binding ratio", "setting": "[6]", "result": "0.0002 ratio (IC50 standard / IC50 test)"}
    ]},
    {"binder": "GLGISWLGLR (also called Her2/neu.447 (10-mer))", "note": "[HER2/neu peptide, position 447, 10 amino acids]", "values": [
      {"measurement": "relative binding ratio", "setting": "[5]", "result": "0.0001 ratio (IC50 standard / IC50 test)"},
      {"measurement": "relative binding ratio", "setting": "[6]", "result": "0.0037 ratio (IC50 standard / IC50 test)"}
    ]},
    {"binder": "HVRENRGRL (Synthetic peptide)", "note": "[HER2/neu A02 supermotif peptide, position 809, 9 amino acids]", "values": [
      {"measurement": "relative binding ratio", "setting": "[7]", "result": "0.0002 ratio (IC50 of standard peptide / IC50 of test peptide)"}
    ]},
    {"binder": "LALTLIDTNR", "note": "[HER2/neu peptide, position 179, 10 amino acids]", "values": [
      {"measurement": "relative binding ratio", "setting": "[1]", "result": "-0.0002 ratio (IC50 standard/IC50 test)"},
      {"measurement": "relative binding ratio", "setting": "[2]", "result": "0.0003 ratio (IC50 standard/IC50 test)"}
    ]},
    {"binder": "GILIKRRQQK (also called Her2/neu.672 (10-mer))", "note": "[HER2/neu peptide, position 672, 10 amino acids]", "values": [
      {"measurement": "relative binding ratio", "setting": "[5]", "result": "0.0014 ratio (IC50 standard / IC50 test)"},
      {"measurement": "relative binding ratio", "setting": "[6]", "result": "0.015 ratio (IC50 standard / IC50 test)"}
    ]},
    {"binder": "LACHQLCAR", "note": "[HER2/neu peptide, position 509, 9 amino acids]", "values": [
      {"measurement": "relative binding ratio", "setting": "[1]", "result": "-0.0002 ratio (IC50 standard/IC50 test)"},
      {"measurement": "relative binding ratio", "setting": "[2]", "result": "0.0003 ratio (IC50 standard/IC50 test)"}
    ]},
    {"binder": "ALESILRRR", "note": "[HER2/neu peptide, position 890, 9 amino acids]", "values": [
      {"measurement": "relative binding ratio", "setting": "[3]", "result": "0.0006 ratio (IC50 of standard peptide / IC50 of test peptide)"}
    ]},
    {"binder": "ALTLIDTNR", "note": "[HER2/neu peptide, position 180, 9 amino acids]", "values": [
      {"measurement": "relative binding ratio", "setting": "[3]", "result": "0.0005 ratio (IC50 of standard peptide / IC50 of test peptide)"}
    ]},
    {"binder": "CYGLGMEHL (also called Her2/neu.342 (9-mer))", "note": "[HER2/neu peptide, position 342, 9 amino acids]", "values": [
      {"measurement": "relative binding ratio", "setting": "[4]", "result": "0.018 ratio (IC50 of standard peptide / IC50 of test peptide)"}
    ]},
    {"binder": "CFVHTVPW (also called Her2/neu.475 (8-mer))", "note": "[HER2/neu peptide, position 475, 8 amino acids]", "values": [
      {"measurement": "relative binding ratio", "setting": "[4]", "result": "0.019 ratio (IC50 of standard peptide / IC50 of test peptide)"}
    ]},
    {"binder": "EFAGCKKIF (also called Her2/neu.363 (9-mer))", "note": "[HER2/neu peptide, position 363, 9 amino acids]", "values": [
      {"measurement": "relative binding ratio", "setting": "[4]", "result": "0.0003 ratio (IC50 of standard peptide / IC50 of test peptide)"}
    ]},
    {"binder": "KIRKYTMR", "note": "[HER2/neu peptide, position 681, 8 amino acids]", "values": [
      {"measurement": "relative binding ratio", "setting": "[1]", "result": "0.001 ratio (IC50 standard/IC50 test)"},
      {"measurement": "relative binding ratio", "setting": "[2]", "result": "0.0004 ratio (IC50 standard/IC50 test)"}
    ]},
    {"binder": "EFAGCKKI (also called Her2/neu.363 (8-mer))", "note": "[HER2/neu peptide, position 363, 8 amino acids]", "values": [
      {"measurement": "relative binding ratio", "setting": "[4]", "result": "-0.0003 ratio (IC50 of standard peptide / IC50 of test peptide)"}
    ]},
    {"binder": "GVLIQRNPQL (Synthetic peptide)", "note": "[HER2/neu A02 supermotif peptide, position 152, 10 amino acids]", "values": [
      {"measurement": "relative binding ratio", "setting": "[7]", "result": "0.0036 ratio (IC50 of standard peptide / IC50 of test peptide)"}
    ]},
    {"binder": "LSPGKNGVVK", "note": "[HER2/neu peptide, position 1173, 10 amino acids]", "values": [
      {"measurement": "relative binding ratio", "setting": "[1]", "result": "-0.0002 ratio (IC50 standard/IC50 test)"},
      {"measurement": "relative binding ratio", "setting": "[2]", "result": "0.0003 ratio (IC50 standard/IC50 test)"}
    ]},
    {"binder": "CFVHTVPWDQL (also called Her2/neu.475 (11-mer))", "note": "[HER2/neu peptide, position 475, 11 amino acids]", "values": [
      {"measurement": "relative binding ratio", "setting": "[4]", "result": "0.0003 ratio (IC50 of standard peptide / IC50 of test peptide)"}
    ]},
    {"binder": "AMPNQAQMRIL (also called Her2/neu.705 (11-mer))", "note": "[HER2/neu peptide, position 705, 11 amino acids]", "values": [
      {"measurement": "relative binding ratio", "setting": "[4]", "result": "-0.0003 ratio (IC50 of standard peptide / IC50 of test peptide)"}
    ]},
    {"binder": "AFGTVYKGIW (also called Her2/neu.730 (10-mer))", "note": "[HER2/neu peptide, position 730, 10 amino acids]", "values": [
      {"measurement": "relative binding ratio", "setting": "[4]", "result": "0.001 ratio (IC50 of standard peptide / IC50 of test peptide)"}
    ]},
    {"binder": "IISAVVGILL (Synthetic peptide)", "note": "[HER2/neu A02 supermotif peptide, position 654, 10 amino acids]", "values": [
      {"measurement": "relative binding ratio", "setting": "[7]", "result": "0.012 ratio (IC50 of standard peptide / IC50 of test peptide)"}
    ]},
    {"binder": "EVTAEDGTQR (also called Her2/neu.321 (10-mer))", "note": "[HER2/neu peptide, position 321, 10 amino acids]", "values": [
      {"measurement": "relative binding ratio", "setting": "[5]", "result": "0.0001 ratio (IC50 standard / IC50 test)"},
      {"measurement": "relative binding ratio", "setting": "[6]", "result": "0.0002 ratio (IC50 standard / IC50 test)"}
    ]},
    {"binder": "CAAGCTGPK (also called Her2/neu.240 (9-mer))", "note": "[HER2/neu peptide, position 240, 9 amino acids]", "values": [
      {"measurement": "relative binding ratio", "setting": "[5]", "result": "0.0021 ratio (IC50 standard / IC50 test)"},
      {"measurement": "relative binding ratio", "setting": "[6]", "result": "0.0021 ratio (IC50 standard / IC50 test)"}
    ]},
    {"binder": "AFGTVYKGI (also called Her2/neu.730 (9-mer))", "note": "[HER2/neu peptide, position 730, 9 amino acids]", "values": [
      {"measurement": "relative binding ratio", "setting": "[4]", "result": "0.0002 ratio (IC50 of standard peptide / IC50 of test peptide)"}
    ]},
    {"binder": "DLAARNVLVK (also called Her2/neu.845 (10-mer))", "note": "[HER2/neu peptide, position 845, 10 amino acids]", "values": [
      {"measurement": "relative binding ratio", "setting": "[5]", "result": "0.0007 ratio (IC50 standard / IC50 test)"},
      {"measurement": "relative binding ratio", "setting": "[6]", "result": "0.0018 ratio (IC50 standard / IC50 test)"}
    ]},
    {"binder": "CLLDHVRENR (also called Her2/neu.805 (10-mer))", "note": "[HER2/neu peptide, position 805, 10 amino acids]", "values": [
      {"measurement": "relative binding ratio", "setting": "[5]", "result": "0.0001 ratio (IC50 standard / IC50 test)"},
      {"measurement": "relative binding ratio", "setting": "[6]", "result": "0.0003 ratio (IC50 standard / IC50 test)"}
    ]},
    {"binder": "AYSLTLQGL (also called Her2/neu.440 (9-mer))", "note": "[HER2/neu peptide, position 440, 9 amino acids]", "values": [
      {"measurement": "relative binding ratio", "setting": "[4]", "result": "0.13 ratio (IC50 of standard peptide / IC50 of test peptide)"}
    ]}
  ]
}
